Measured values as given in patent US10590192B2, “Midkine antibody” (Cellmid Limited, priority 2014, dated 2020).
Where a chain is given by its changes, count along the chain named.

T1: recombinant human MK (huMK) (Homo sapiens, UniProt P21741)
T1 sequence (P21741 21-143): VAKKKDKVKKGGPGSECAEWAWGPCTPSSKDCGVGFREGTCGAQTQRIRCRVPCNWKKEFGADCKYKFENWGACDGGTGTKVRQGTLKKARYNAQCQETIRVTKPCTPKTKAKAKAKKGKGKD

T2: murine MK (muMK) (Mus musculus, UniProt P12025)
T2 sequence (P12025 23-140): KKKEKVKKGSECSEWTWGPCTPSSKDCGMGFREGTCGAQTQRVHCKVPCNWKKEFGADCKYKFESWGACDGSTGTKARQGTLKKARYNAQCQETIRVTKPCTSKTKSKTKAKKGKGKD

B1: IP14-H5L5: humanised IP14 antibody: VH SEQ ID NO: 6, VL SEQ ID NO: 14 (antibody, V domains shown)
VH: QVQLVQSGGGLVQPGGSLRLSCAASGQSFSSYWMNWVRQAPGQGLEWIGMIHPSDSETILNQKFKDKATLTVDISKNTAYLQMNSLRAEDTAVYYCSSWSAKRGDFWGQGTLVTVSS
VL: EIVLTQSPATLSLSPGERATLSCRASQGVSSNLAWYQQKPGQAPRLLIYDASNRATGIPARFSGSGPGTDFTLTISSLEPEDFAVYYCQQSNSWPLTFGQGTKVEIKR
modifications: Variable region heavy chain humanised variant 5 (VH5); Variable region light chain humanised variant 5 (VL5)
B2: IP14-H6L5: humanised IP14 antibody: VH SEQ ID NO: 7, VL SEQ ID NO: 14 (antibody, V domains shown)
VH: B1 VH with Q13K, G16H, Q43K, T71S, S75A, T78S
VL: B1 VL
modifications: Variable region heavy chain humanised variant 6 (VH6); Variable region light chain humanised variant 5 (VL5)
B3: IP14-H1L5: humanised IP14 antibody: VH SEQ ID NO: 2, VL SEQ ID NO: 14 (antibody, V domains shown)
VH: QVQLVQSGAEVKKPGHSVKVSCKASGQSFSSYWMNWVRQAPGQGLEWIGMIHPSDSETILNQKFKDKATLTVDISTSTAYMELSSPRSEDTAVYYCSSWSAKRGDFWGQGTLVTVSS
VL: B1 VL
modifications: Variable region heavy chain humanised variant 1 (VH1); Variable region light chain humanised variant 5 (VL5)
B4: IP14-H3L5: humanised IP14 antibody: VH SEQ ID NO: 4, VL SEQ ID NO: 14 (antibody, V domains shown)
VH: B3 VH with H16A, I48M, A68V, L70M, V72R, I74T, A79V, P86L, S97A, S98R
VL: B1 VL
modifications: Variable region heavy chain humanised variant 3 (VH3); Variable region light chain humanised variant 5 (VL5)
B5: IP14-H2L5: humanised IP14 antibody: VH SEQ ID NO: 3, VL SEQ ID NO: 14 (antibody, V domains shown)
VH: B3 VH with H16A, P86L
VL: B1 VL
modifications: Variable region heavy chain humanised variant 2 (VH2); Variable region light chain humanised variant 5 (VL5)
B6: IP14-H4L5: humanised IP14 antibody: VH SEQ ID NO: 5, VL SEQ ID NO: 14 (antibody, V domains shown)
VH: QVQLVQSGAEVKKPGASVKVSCKASGYTFTSYYMHWVRQAPGQGLEWMGIIHPSGGSTSYAQKFQGRVTMTRDTSTSTVYMELSSLRSEDTAVYYCARWSAKRGDFWGQGTLVTVSS
VL: B1 VL
modifications: Variable region heavy chain humanised variant 4 (VH4); Variable region light chain humanised variant 5 (VL5)
B7: IP14-H3L4: humanised IP14 antibody: VH SEQ ID NO: 4, VL SEQ ID NO: 13 (antibody, V domains shown)
VH: B3 VH with H16A, I48M, A68V, L70M, V72R, I74T, A79V, P86L, S97A, S98R
VL: EIVLTQSPDFQSVTPKEKVNITCRASESISNNLHWYQQKPHQSPKLLIYYASQSISGVPSRFSGSGSGTDFNLTINSVEAEDAATYYCQQSNSWPLTFGGGTKLEIKR
modifications: Variable region heavy chain humanised variant 3 (VH3); Variable region light chain humanised variant 4 (VL4)
B8: IP14-H4L4: humanised IP14 antibody: VH SEQ ID NO: 5, VL SEQ ID NO: 13 (antibody, V domains shown)
VH: B6 VH
VL: B7 VL
modifications: Variable region heavy chain humanised variant 4 (VH4); Variable region light chain humanised variant 4 (VL4)
B9: IP14-H3L7: humanised IP14 antibody: VH SEQ ID NO: 4, VL SEQ ID NO: 16 (antibody, V domains shown)
VH: B3 VH with H16A, I48M, A68V, L70M, V72R, I74T, A79V, P86L, S97A, S98R
VL: DIVLTQSPATLSLSPGERANLSCRASESISNNLHWYQQKPHQAPRLLIYYASQSISGVPARFSGSGSGTDFNLTISSVEPEDFAVYYCQQSNSWPLTFGQGTKVEIKR
modifications: Variable region heavy chain humanised variant 3 (VH3); Variable region light chain humanised variant 7 (VL7)
B10: IP14-H3L8: humanised IP14 antibody: VH SEQ ID NO: 4, VL SEQ ID NO: 17 (antibody, V domains shown)
VH: B3 VH with H16A, I48M, A68V, L70M, V72R, I74T, A79V, P86L, S97A, S98R
VL: B9 VL with N20T, N72T
modifications: Variable region heavy chain humanised variant 3 (VH3); Variable region light chain humanised variant 8 (VL8)
B11: IP14-H4L1: humanised IP14 antibody: VH SEQ ID NO: 5, VL SEQ ID NO: 10 (antibody, V domains shown)
VH: B6 VH
VL: B9 VL with D1E, Y49K, V58I, S67P, Q100G, V104L
modifications: Variable region heavy chain humanised variant 4 (VH4); Variable region light chain humanised variant 1 (VL1)
B12: IP14-H4L6: humanised IP14 antibody: VH SEQ ID NO: 5, VL SEQ ID NO: 15 (antibody, V domains shown)
VH: B6 VH
VL: EIVLTQSPSTLSASVGDRVNITCRASESISNNLHWYQQKPHKAPKLLIYYASQSISGVPSRFSGSGSGTEFNLTISSVQPDDFATYYCQQSNSWPLTFGQGTKVEIKR
modifications: Variable region heavy chain humanised variant 4 (VH4); Variable region light chain humanised variant 6 (VL6)
B13: IP14-H4L2: humanised IP14 antibody: VH SEQ ID NO: 5, VL SEQ ID NO: 11 (antibody, V domains shown)
VH: B6 VH
VL: B9 VL with D1E, N20T, H41G, Y49K, V58I, S67P, N72T, Q100G, V104L
modifications: Variable region heavy chain humanised variant 4 (VH4); Variable region light chain humanised variant 2 (VL2)
B14: IP14-H4L3: humanised IP14 antibody: VH SEQ ID NO: 5, VL SEQ ID NO: 12 (antibody, V domains shown)
VH: B6 VH
VL: B9 VL with N20T, H41G, V58I, S67P, N72T, V78L, Q100G, V104L
modifications: Variable region heavy chain humanised variant 4 (VH4); Variable region light chain humanised variant 3 (VL3)

Key:
[1] = biological target: T1, recombinant human MK (huMK); assay: ELISA binding of humanised anti-MK antibodies to huMK; conditions: ELISA, plates coated with 2 ug/mL huMK; read-out: Binding affinity for huMK, ELISA EC50
Protocol: (§1) The binding specificity and affinity of the humanised anti-MK antibodies to recombinant human MK (huMK) and murine MK (muMK) was assessed by ELISA. ELISA plates (Nunc Immuno MaxiSorp 96 well flat-bottom were coated with 100 uL of 2 ug/mL of either huMK or muMK in 2% BSA/PBS (overnight at room temperature). After washing, blocking (1 h at 37° C.), and washing again, the humanised anti-MK and chimeric antibodies described in Example 1 were analysed for binding to huMK or muMK at concentrations ranging between 3 μg/ml and 0.00004 μg/ml in 2% BSA/PBS (1 h at 37° C.). After washing, the binding of antibody was detected with goat anti-mouse IgG (Fab specific)-HRP conjugate (Sigma, Cat. No. A9917) and SigmaFast OPD substrate (Sigma, Cat. No. P9187). The reaction was stopped with 3 M HCl, absorbance read at 490 nm on a Dynex Technologies MRX TC II plate reader and the binding curves plotted. Binding affinity data for the humanised anti-MK antibodies to huMK and muMK are presented in Table 6 and Table 7 respectively, and in FIG. 3.
(§2) KD values for hIP14-H5L8, hIP14-H6L3 and hIP14-H6L8 was then compared with the KD values obtained for the corresponding murine IP14 precursor antibody and the chimeric antibody using the methods described in Example 2. […] Based on this finding, these candidate antibodies were produced to 100 mg scale to enable further testing in functional assays to determine biological function.

[2] = biological target: T2, murine MK (muMK); assay: ELISA binding of humanised anti-MK antibodies to muMK; conditions: ELISA, plates coated with 2 ug/mL muMK; read-out: Binding affinity for muMK, ELISA EC50
Protocol: as §1, §2

| Molecule | EC50 [1] [nM] | EC50 [2] [nM] |
| --- | --- | --- |
| B1 | > 10 | > 10 |
| B2 | > 10 | > 10 |
| B3 | > 10 | > 10 |
| B4 | > 10 | – |
| B5 | > 10 | > 10 |
| B6 | > 10 | > 10 |
| B7 | > 10 | – |
| B8 | > 10 | > 10 |
| B9 | > 10 | – |
| B10 | > 10 | – |
| B11 | > 10 | > 10 |
| B12 | > 10 | > 10 |
| B13 | > 10 | > 10 |
| B14 | > 10 | > 10 |
